Here are results for nine molecules from patent publication EP4736885A1 (CSPC Megalith Biopharmaceutical Co., Ltd., dated 2025).

Residue numbers refer to the chain shown, from its start.

The term EC50 denotes the midpoint of the concentration-response curve. Lower therefore signals greater potency.

Experiment [1] deals with T1, B7H3 on B7H3-positive human melanoma A375 cells (human, UniProt Q5ZPR3 29-534).
T1 construct: whole, on cells; Endogenous B7H3 on A375 cells; also called B7H3-positive A375 cells
T1 sequence (looked up): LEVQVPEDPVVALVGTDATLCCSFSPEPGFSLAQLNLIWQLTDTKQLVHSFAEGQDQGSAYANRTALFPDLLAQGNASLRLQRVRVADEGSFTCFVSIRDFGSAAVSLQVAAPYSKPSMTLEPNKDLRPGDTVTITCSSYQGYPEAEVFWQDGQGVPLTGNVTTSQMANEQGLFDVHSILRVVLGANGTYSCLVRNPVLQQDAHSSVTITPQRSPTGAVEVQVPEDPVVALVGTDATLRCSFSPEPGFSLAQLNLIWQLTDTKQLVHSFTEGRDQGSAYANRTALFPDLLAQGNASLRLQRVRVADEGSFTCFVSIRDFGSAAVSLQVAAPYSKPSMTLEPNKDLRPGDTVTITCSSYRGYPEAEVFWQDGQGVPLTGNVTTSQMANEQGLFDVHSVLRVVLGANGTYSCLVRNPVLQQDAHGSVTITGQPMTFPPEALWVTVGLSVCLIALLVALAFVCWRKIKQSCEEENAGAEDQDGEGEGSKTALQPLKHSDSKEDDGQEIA
Nature of the experiment: flow cytometry on B7H3-positive A375 cells, MFI. (In flow cytometry, cells or beads pass a laser one at a time.)

The target in experiment [2] is T2, His-tagged human B7H3 protein (purchased from Beijing ACROBiosystems Co., Ltd.) (human, UniProt Q5ZPR3-2 29-245, limits assumed).
T2 construct: not shown: His tag
T2 sequence (looked up): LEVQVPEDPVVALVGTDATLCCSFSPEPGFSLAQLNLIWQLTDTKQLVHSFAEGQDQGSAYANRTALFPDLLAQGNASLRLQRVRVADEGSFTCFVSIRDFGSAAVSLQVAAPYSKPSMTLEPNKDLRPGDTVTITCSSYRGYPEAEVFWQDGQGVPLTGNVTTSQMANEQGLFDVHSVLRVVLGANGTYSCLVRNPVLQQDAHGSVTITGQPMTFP
Nature of the experiment: ELISA, His-tagged human B7H3 coated on plate, anti-human IgG-HRP.

B1: antibody-drug conjugate 43B-045-6 (antibody, human IgG1, kappa, L234A L235A)
heavy: QVQLVQSGAEVKKPGASVKVSCKASGYTFTDYFMNWVRQAPGQGLEWMGDVNPKTGSPSYNQKFKGRVTMTRDTSTSTVYMELSSLRSEDTAVYYCARRYGFLYSMDYWGQGTSVTVSSASTKGPSVFPLAPSSKSTSGGTAALGCLVKDYFPEPVTVSWNSGALTSGVHTFPAVLQSSGLYSLSSVVTVPSSSLGTQTYICNVNHKPSNTKVDKRVEPKSCDKTHTSPPCPAPEAAGGPSVFLFPPKPKDTLMISRTPEVTCVVVDVSHEDPEVKFNWYVDGVEVHNAKTKPREEQYNSTYRVVSVLTVLHQDWLNGKEYKCKVSNKALAASIEKTISKAKGQPREPQVYTLPPSREEMTKNQVSLTCLVKGFYPSDIAVEWESNGQPENNYKTTPPVLDSDGSFFLYSKLTVDKSRWQQGNVFSCSVMHEALHNHYTQKSLSLSPGK
light: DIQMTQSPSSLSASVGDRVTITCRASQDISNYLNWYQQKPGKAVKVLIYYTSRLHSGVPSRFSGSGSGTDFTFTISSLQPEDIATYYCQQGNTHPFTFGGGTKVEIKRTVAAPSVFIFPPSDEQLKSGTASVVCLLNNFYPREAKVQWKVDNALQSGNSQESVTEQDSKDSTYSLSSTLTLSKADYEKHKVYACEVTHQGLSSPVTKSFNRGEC
modifications: linker-drug compound 045 (exatecan) on thiols of reduced interchain cysteines; DAR of the whole conjugate 5.7
In experiment [1], B1 displayed an EC50 of 37.8 ng/mL.

B2: antibody-drug conjugate 43A-042 (antibody, human IgG1, kappa, L234A L235A)
heavy: B1 heavy with S228C
light: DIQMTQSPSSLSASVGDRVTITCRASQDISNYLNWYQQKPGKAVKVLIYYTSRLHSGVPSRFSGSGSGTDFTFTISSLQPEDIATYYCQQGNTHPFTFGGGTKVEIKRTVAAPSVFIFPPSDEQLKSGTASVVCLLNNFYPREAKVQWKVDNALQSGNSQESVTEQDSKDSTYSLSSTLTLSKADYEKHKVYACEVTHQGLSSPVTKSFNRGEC
modifications: linker-drug compound A_10 (exatecan) on thiols of reduced interchain cysteines; DAR of the whole conjugate 7.6
With B2, the EC50 in experiment [2] worked out at 1.17 ng/mL.

B3: antibody-drug conjugate 43A-DXd (antibody, human IgG1, kappa, L234A L235A)
heavy: B1 heavy with S228C
light: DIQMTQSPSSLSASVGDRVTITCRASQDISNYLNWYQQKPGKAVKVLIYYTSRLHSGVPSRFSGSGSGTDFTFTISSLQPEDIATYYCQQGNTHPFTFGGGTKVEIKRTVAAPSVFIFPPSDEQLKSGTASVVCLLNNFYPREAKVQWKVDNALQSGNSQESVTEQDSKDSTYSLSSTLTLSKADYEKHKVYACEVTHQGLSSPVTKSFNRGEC
modifications: deruxtecan linker-drug on thiols of reduced interchain cysteines; DAR of the whole conjugate 7.4
Turning to B3, in experiment [2], the concentration for a half-maximal effect (EC50) was 1.19 ng/mL.

B4: antibody-drug conjugate 43A-043 (antibody, human IgG1, kappa, L234A L235A)
heavy: B1 heavy with S228C
light: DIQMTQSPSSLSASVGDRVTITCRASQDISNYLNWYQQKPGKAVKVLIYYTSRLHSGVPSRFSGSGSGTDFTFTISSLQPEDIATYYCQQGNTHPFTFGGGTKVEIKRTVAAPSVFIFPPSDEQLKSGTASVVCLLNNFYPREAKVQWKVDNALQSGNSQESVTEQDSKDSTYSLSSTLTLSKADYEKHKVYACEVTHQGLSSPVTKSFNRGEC
modifications: linker-drug compound B_3 (exatecan) on thiols of reduced interchain cysteines; DAR of the whole conjugate 7.8
B4: a half-maximal effect in experiment [2] (EC50) was put at 1.09 ng/mL.

B5: anti-B7H3 antibody 43A (antibody, human IgG1, kappa, L234A L235A)
heavy: B1 heavy with S228C
light: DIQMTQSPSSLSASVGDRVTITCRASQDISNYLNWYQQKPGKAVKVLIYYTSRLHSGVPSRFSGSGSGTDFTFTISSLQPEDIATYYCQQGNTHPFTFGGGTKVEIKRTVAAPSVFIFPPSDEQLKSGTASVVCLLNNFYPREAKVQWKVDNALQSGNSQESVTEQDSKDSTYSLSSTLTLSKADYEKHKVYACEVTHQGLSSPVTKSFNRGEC
notes: 2 identical heavy chains and 2 identical light chains
Consider B5, for which the results for the half-maximal effective concentration (EC50) in experiment [2] and in experiment [1] were 1.02 ng/mL and 54.5 ng/mL, respectively.

B6: antibody-drug conjugate 43B-043 (antibody, human IgG1, kappa, L234A L235A)
heavy: B1 heavy
light: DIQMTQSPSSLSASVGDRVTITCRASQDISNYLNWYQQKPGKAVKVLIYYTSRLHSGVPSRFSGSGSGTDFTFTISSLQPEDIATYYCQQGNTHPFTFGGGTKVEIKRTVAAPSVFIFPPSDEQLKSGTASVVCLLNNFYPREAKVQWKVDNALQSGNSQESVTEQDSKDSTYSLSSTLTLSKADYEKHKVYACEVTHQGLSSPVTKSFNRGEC
modifications: linker-drug compound B_3 (exatecan) on thiols of reduced interchain cysteines; DAR of the whole conjugate 5.9
B6: the half-maximal effective concentration (EC50) in experiment [2] is 1.05 ng/mL.

B7: antibody-drug conjugate 43B-042 (antibody, human IgG1, kappa, L234A L235A)
heavy: B1 heavy
light: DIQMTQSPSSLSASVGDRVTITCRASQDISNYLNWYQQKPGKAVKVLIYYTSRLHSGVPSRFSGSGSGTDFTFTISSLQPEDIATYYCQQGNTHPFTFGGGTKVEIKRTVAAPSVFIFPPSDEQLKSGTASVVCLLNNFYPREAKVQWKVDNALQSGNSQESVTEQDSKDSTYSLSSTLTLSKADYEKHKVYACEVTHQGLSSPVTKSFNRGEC
modifications: linker-drug compound A_10 (exatecan) on thiols of reduced interchain cysteines; DAR of the whole conjugate 5.9
In turn, B7 displayed an EC50 in experiment [2] of 1.16 ng/mL.

B8: anti-B7H3 antibody 43B (antibody, human IgG1, kappa, L234A L235A)
heavy: B1 heavy
light: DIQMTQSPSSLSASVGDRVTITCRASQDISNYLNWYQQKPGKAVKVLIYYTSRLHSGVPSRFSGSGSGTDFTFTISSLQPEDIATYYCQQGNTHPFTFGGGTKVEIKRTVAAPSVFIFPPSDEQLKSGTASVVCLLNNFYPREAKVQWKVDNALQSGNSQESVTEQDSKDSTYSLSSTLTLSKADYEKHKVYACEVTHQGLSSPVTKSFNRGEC
notes: as for B5
B8: the values for the concentration for a half-maximal effect (EC50) in experiment [2] and in experiment [1] were 1.05 ng/mL and 61.2 ng/mL, respectively.

B9: M30 antibody (CN103687945B) (antibody, human IgG1, kappa, V domains shown)
VH: QVQLVQSGAEVKKPGSSVKVSCKASGYTFTNYVMHWVRQAPGQGLEWMGYINPYNDDVKYNEKFKGRVTITADESTSTAYMELSSLRSEDTAVYYCARWGYYGSPLYYFDYWGQGTLVTVSS
VL: EIVLTQSPATLSLSPGERATLSCRASSRLIYMHWYQQKPGQAPRPLIYATSNLASGIPARFSGSGSGTDFTLTISSLEPEDFAVYYCQQWNSNPPTFGQGTKVEIKR
notes: also called M30-H1/M30-L4
As for B9, the concentration for a half-maximal effect (EC50) in experiment [1] came out at 125 ng/mL.
